The results in this text go back to the RNAGym collection of RNA variant scans (doi:10.7554/elife.80360).

B1: Hairpin Ribozyme (parent)
chain: GUCCUCUUUCACGUGCGCGUGAAAGAGAGAAGUGAACCAGAGAAACACACGUUGUGGUAUAUUACCUGGUA

In the data set the parent is B1. Nature of the data set: self-cleavage, relative activity (ratio to wild type); higher = more cleavage; co-transcriptional.
Regarding C12A G13U, the self-cleavage was 0.673.

Turning to C12A A22C, the self-cleavage stood at 0.575.

C12A A47U: the self-cleavage amounted to 0.132.

Regarding C12A A47G, the self-cleavage was determined as 0.0872.

As for A11U G27C, the self-cleavage was determined as 0.184.

As for A11U G42C, the self-cleavage stood at 0.271.

As to A11U G42U, the self-cleavage stood at 0.171.

Take A11G G56U: the self-cleavage is 0.105.

Take A11U C50U: the self-cleavage came to 0.36.

Consider C10U G40U, for which the self-cleavage turned out to be 0.203.

As for C10U G40C, the self-cleavage is 0.138.

For A11U A35G, the self-cleavage was determined as 0.867.

As to A11U A35C, the self-cleavage stood at 0.86.

For A11C A35C, the self-cleavage was found to be 0.764.

Turning to A11G A31G, the self-cleavage amounted to 0.728.

Consider A11G A31U, for which the self-cleavage was 0.0838.

A11G A31C: the self-cleavage worked out at 0.0862.

Consider C12A U60G, for which the self-cleavage was found to be 0.459.

Turning to C12A U60A, the self-cleavage came out at 0.621.

On to C12A U60C, for which the self-cleavage was determined as 0.893.

As for C10U A44G, the self-cleavage is 0.117.

For the variant C10U A44U, the self-cleavage came to 0.187.

C12A C66G: the self-cleavage is 0.208.

With C12A C66A, the self-cleavage was found to be 0.259.

A11U A43U: the self-cleavage stood at 0.078.

Turning to C10U G34U, the self-cleavage stood at 1.09.

Regarding A11C C38A, the self-cleavage came out at 0.171.

For the variant A11G A26U, the self-cleavage was determined as 0.645.

As for A11G A26G, the self-cleavage is 0.751.

As for A11G U60G, the self-cleavage amounted to 0.565.

As to C12G A28C, the self-cleavage was found to be 0.561.

With C12G A28U, the self-cleavage came out at 0.57.

Turning to A11U U70C, the self-cleavage is 0.848.

Regarding A11C U55G, the self-cleavage amounted to 0.249.

Take C10U A36U: the self-cleavage is 0.487.

A11C C12A: the self-cleavage worked out at 0.636.

Consider A11U U33C, for which the self-cleavage worked out at 0.152.

On to A11U U33G, for which the self-cleavage was found to be 0.151.

Take A11C A31C: the self-cleavage was determined as 0.116.

With C12A A28G, the self-cleavage turned out to be 0.836.

On to C12A A28C, for which the self-cleavage came out at 0.531.

Turning to C10U G19U, the self-cleavage came to 0.672.

In the case of C12A U53A, the self-cleavage was found to be 0.785.

C12A U53G: the self-cleavage is 0.587.

Turning to A11C G69C, the self-cleavage was 0.182.

On to A11U G32C, for which the self-cleavage is 0.144.

Consider A11U U55C, for which the self-cleavage turned out to be 0.118.

Turning to A11U U55G, the self-cleavage is 0.339.

In the case of A11C A44U, the self-cleavage was 0.155.

On to C10U A71U, for which the self-cleavage was 0.706.

Consider C10U A71C, for which the self-cleavage came to 1.23.

For the variant C10U A35U, the self-cleavage was 0.568.

As to C10U A35G, the self-cleavage was found to be 0.689.

Consider A11U C37A, for which the self-cleavage is 0.228.

Turning to A11U G68U, the self-cleavage was 0.292.

Take A11U G68C: the self-cleavage was determined as 0.13.

A11U C65A: the self-cleavage was 0.719.

A11C G27C: the self-cleavage stood at 0.165.

A11C G27A: the self-cleavage was 0.403.

A11U A39U: the self-cleavage was found to be 0.309.

A11U A39C: the self-cleavage worked out at 0.495.

Turning to C10U A22G, the self-cleavage was determined as 0.635.

For C10U A22U, the self-cleavage worked out at 0.373.

A11G A61G: the self-cleavage came out at 0.166.

For A11G A61U, the self-cleavage stood at 0.136.

On to C10U A26G, for which the self-cleavage is 0.722.

On to A11G G69C, for which the self-cleavage amounted to 0.267.

For the variant C12G A45U, the self-cleavage was 0.116.

For A11C G56A, the self-cleavage is 0.15.

As for A11U C16G, the self-cleavage worked out at 0.653.

On to A11U C16A, for which the self-cleavage came out at 0.696.

For the variant A11U U67G, the self-cleavage stood at 0.287.

For A11U G51U, the self-cleavage was 0.805.

Turning to A11U G51A, the self-cleavage amounted to 0.799.

Turning to A11G C66U, the self-cleavage is 0.619.

For the variant C10U C50G, the self-cleavage was 0.195.

As for C12A G21U, the self-cleavage came to 0.752.

For the variant C12A G21C, the self-cleavage was found to be 0.808.

For the variant C12A C50U, the self-cleavage stood at 0.399.

With A11C A45G, the self-cleavage turned out to be 0.162.

A11U G29C: the self-cleavage was determined as 0.0923.

On to A11U G29U, for which the self-cleavage was found to be 0.0998.

Turning to A11G U55G, the self-cleavage was determined as 0.223.

As for C10U A59U, the self-cleavage was 0.124.

For the variant C12A A36G, the self-cleavage worked out at 0.956.

As for C10U C48U, the self-cleavage came to 0.209.

Turning to C12A G15C, the self-cleavage amounted to 0.837.

For the variant C12A G15U, the self-cleavage was found to be 0.805.

Consider C12A G15A, for which the self-cleavage was found to be 0.801.

In the case of C12A A59U, the self-cleavage worked out at 0.176.

Take C12A A59C: the self-cleavage is 0.149.

Turning to A11U A61G, the self-cleavage was 0.176.

On to A11U A64G, for which the self-cleavage was found to be 0.588.

In the case of A11U A64U, the self-cleavage stood at 0.152.

Turning to A11U A64C, the self-cleavage was determined as 0.175.

For C10U G54C, the self-cleavage is 0.444.

With A11C G42A, the self-cleavage turned out to be 0.278.

For the variant A11U A30U, the self-cleavage was determined as 0.133.

In the case of C10U G56U, the self-cleavage is 0.162.

On to C10U G56A, for which the self-cleavage is 0.181.

With C10U G56C, the self-cleavage stood at 0.25.

As for A11U A59G, the self-cleavage was 0.0747.

As to C12A G69C, the self-cleavage is 0.275.

In the case of C12A G69U, the self-cleavage came out at 0.251.

Take C12A U62G: the self-cleavage turned out to be 0.143.

Regarding A11U G57C, the self-cleavage worked out at 0.182.

C10U A45U: the self-cleavage amounted to 0.111.

For the variant C10U A45G, the self-cleavage stood at 0.0999.

With C10U A45C, the self-cleavage is 0.159.

Turning to C10U C46A, the self-cleavage stood at 0.15.

Take C10U C46G: the self-cleavage is 0.0871.

In the case of C10U U53C, the self-cleavage was 0.708.

Turning to A11C U20C, the self-cleavage came to 1.02.

On to A11U G34C, for which the self-cleavage worked out at 1.43.

Take A11U G34A: the self-cleavage stood at 1.13.

For C12G A31G, the self-cleavage was determined as 0.455.

C12G A31U: the self-cleavage came to 0.152.

Regarding A11G A71G, the self-cleavage was 0.814.

Regarding C12A U58C, the self-cleavage came out at 0.686.

On to C12A U58A, for which the self-cleavage came out at 0.733.

Consider C12A U52C, for which the self-cleavage was found to be 0.768.

For the variant C12A U52A, the self-cleavage was found to be 0.763.

Consider A11G A39G, for which the self-cleavage was found to be 0.323.

A11U U20G: the self-cleavage was 0.907.

On to A11U U20C, for which the self-cleavage is 1.11.

For A11U U20A, the self-cleavage amounted to 0.874.

On to C10U U58A, for which the self-cleavage was 0.533.

For the variant C12G A36U, the self-cleavage was 0.517.

For A11C U14G, the self-cleavage was found to be 0.661.

Take C10U G68U: the self-cleavage worked out at 0.189.

In the case of C12A U70A, the self-cleavage turned out to be 0.673.

Consider A11G C12G, for which the self-cleavage came out at 0.788.

As to A11C A23C, the self-cleavage amounted to 0.622.

Regarding A11C A23U, the self-cleavage came out at 0.6.

Turning to A11C A23G, the self-cleavage was found to be 0.642.

For the variant A11C A59C, the self-cleavage was found to be 0.0956.

Take A11C A59U: the self-cleavage is 0.112.

In the case of A11C A59G, the self-cleavage was determined as 0.161.

Regarding A11U G56U, the self-cleavage came to 0.131.

For the variant A11U G56A, the self-cleavage came to 0.176.

Take A11U U62C: the self-cleavage worked out at 0.187.

In the case of A11G U14C, the self-cleavage turned out to be 0.952.

For C12A G34C, the self-cleavage worked out at 1.17.

With A11G G13A, the self-cleavage turned out to be 0.924.

As to A11U A41G, the self-cleavage came to 0.495.

For A11U A31C, the self-cleavage was determined as 0.152.

For A11U A31G, the self-cleavage is 0.464.

On to C12A U63A, for which the self-cleavage worked out at 0.102.

Regarding C12A U63G, the self-cleavage turned out to be 0.213.

A11G U52C: the self-cleavage came to 0.944.

On to A11C C50A, for which the self-cleavage was 0.288.

As to C12A A39C, the self-cleavage worked out at 0.397.

As for C12A C16A, the self-cleavage came to 0.964.

Take A11C A64U: the self-cleavage was found to be 0.237.

With A11U C18U, the self-cleavage is 1.12.

Consider A11U C18G, for which the self-cleavage turned out to be 0.812.

With C10U A39G, the self-cleavage came to 0.242.

With C12A A44U, the self-cleavage was 0.186.

A11G U63A: the self-cleavage was 0.116.

In the case of A11C G19C, the self-cleavage was determined as 0.589.

A11G G40A: the self-cleavage is 0.291.

As for A11G G40C, the self-cleavage is 0.188.

As for A11U C66A, the self-cleavage is 0.139.

On to C12G A41U, for which the self-cleavage is 1.25.

With C12A U20G, the self-cleavage came out at 0.732.

For the variant A11C G32C, the self-cleavage came to 0.0648.

With C12G A49C, the self-cleavage came out at 0.196.
